Laboratory results from patent US20210380703A1 (RIGEL PHARMACEUTICALS, published 2021).

Key:
Mouse ACVR2A = Mouse ACVR2A (mouse, UniProt P27038 20-135, limits assumed); experiment: ELISA
Description: (§1) The binding of ACVR2A-specific monoclonal antibodies to human ACVR2A, mouse ACVR2A, biotinylated goat anti-human kappa light chain (positive control) and human Fc (negative control) were determined by ELISA.

Human ACVR2A = target: T1, Human ACVR2A (human, UniProt P27037 20-135, limits assumed); experiment: ELISA
T1 construct: also called activin receptor, type II A
Description: as §1

Goat anti-Human Kappa = target: T2, Goat anti-Human Kappa; experiment: ELISA; positive control
T2 construct: Positive control; also called biotinylated goat anti-human kappa light chain
Description: as §1

[1] = target: T3, biotinylated goat anti-human kappa light chain; experiment: ELISA, positive control
T3 construct: positive control of the ELISA
Description: as §1
Further: test concentration or dose not given here.

Sequence of Mouse ACVR2A (P27038 20-135 limits assumed): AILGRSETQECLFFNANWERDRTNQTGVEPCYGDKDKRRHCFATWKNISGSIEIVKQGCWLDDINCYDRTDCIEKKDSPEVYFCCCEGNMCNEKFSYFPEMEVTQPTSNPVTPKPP
T1 sequence (P27037 20-135 limits assumed): as the sequence (P27038 20-135 limits assumed) above, with R20K, I73V counted along it

Row | Binder | optical density (Mouse ACVR2A) [OD] | optical density (Human ACVR2A) [OD] | optical density (Goat anti-Human Kappa) [OD] | optical density [1] [OD]
1 | 375_B03 (antibody, V domains shown, VH/VL only) VH: EVQLLESGGGLVQPGGSLRLSCAASGFTFSSYSMNWVRQAPGKGLEWVAGINYNGGYTSYADSVKGRFTISRDNSKNTLYLQMNSLRAEDTAVYYCARGATWHDTHLDYWGQGTLVTVSS VL: DIQMTQSPSSLSASVGDRVTITCRASQSILTYLNWYQQKPGKAPKLLIYAATSRASGVPSRFSGSGSGTDFTLTISSLQPEDFATYYCQQSYDSPLTFGGGTKVEIK | 3.7 | 3.68 | 3.24 | –
2 | 369_F08 (antibody, V domains shown, Group III) VH: EVQLLESGGGLVQPGGSLRLSCAASGFTFSDYGMHWVRQAPGKGLEWVSGINYNSGYTSYADSVKGRFTISRDNSKNTLYLQMNSLRAEDTAVYYCARGANWHDTALDYWGQGTLVTVSS VL: DIQMTQSPSSLSASVGDRVTITCRASQSILSYLNWYQQKPGKAPKLLIYAASSLQSGVPSRFSGSGSGTDFTLTISSLQPEDFATYYCQQSYDLPLTFGGGTKVEIK | – | – | – | 3.1
3 | 365_D07 (antibody, V domains shown, VH/VL only) VH: EVQLLESGGGLVQPGGSLRLSCAASGFTFSSYGMNWVRQAPGKGLEWVSSINYNSGYKSYADSVKGRFTISRDNSKNTLYLQMNSLRAEDTAVYYCARGATWHDTHLDYWGQGTLVTVSS VL: not shown | 2.06 | 1.83 | 3.38 | –
4 | 365_A11 (antibody, V domains shown, VH/VL only) VH: EVQLLESGGGLVQPGGSLRLSCAASGFTFDDYGMNWVRQAPGKGLEWVSGINYNSGYTSYADSVKGRFTISRDNSKNTLYLQMNSLRAEDTAVYYCARSANWHDTALDYWGQGTLVTVSS VL: DIQMTQSPSSLSASVGDRVTITCRASQSILSYLNWYQQKPGKAPKLVIYAATSLASGVPSRFSGSGSGTDFTLTISSLQPEDFATYYCQQSYESPLTFGGGTKVEIK | 1.94 | 2.04 | 3.27 | –
5 | 365_C04 (antibody, V domains shown, VH/VL only) VH: EVQLLESGGGLVQPGGSLRLSCAASGFTFDSYSMNWVRQAPGKGLEWVANINYNGGYKGYADSVKGRFTISRDNSKNTLYLQMNSLRAEDTAVYYCARGATWHDTHLDYWGQGTLVTVSS VL: DIQMTQSPSSLSASVGDRVTITCRASQSILTYLNWYQQKPGKAPKLVIYAATSLASGVPSRFSGSGSGTDFTLTISSLQPEDFATYYCQQSYDTPLTFGGGTKVEIK | 2.67 | 2.26 | 3.55 | –
6 | 365_A03 (antibody, V domains shown, VH/VL only) VH: EVQLLESGGGLVQPGGSLRLSCAASGFTFSSYSMNWVRQAPGKGLEWVAGINYNSGYKGYADSVKGRFTISRDNSKNTLYLQMNSLRAEDTAVYYCARSANWHDTALDYWGQGTLVTVSS VL: DIQMTQSPSSLSASVGDRVTITCRASQSILSYLNWYQQKPGKAPKLVIYAVTSRASGVPSRFSGSGSGTDFTLTISSLQPEDFATYYCQQSYDSPLTFGGGTKVEIK | 3.24 | 3.4 | 3.44 | –
7 | 365_C11 (antibody, V domains shown, VH/VL only) VH: EVQLLESGGGLVQPGGSLRLSCAASGFTFSSYSMNWVRQAPGKGLEWVAGINYNGGYKSYADSVKGRFTISRDNSKNTLYLQMNSLRAEDTAVYYCARSANWHDTHLDYWGQGTLVTVSS VL: DIQMTQSPSSLSASVGDRVTITCRASQSIITYLNWYQQKPGKAPKLVIYAVTSRASGVPSRFSGSGSGTDFTLTISSLQPEDFATYYCQQSYSLPLTFGGGTKVEIK | 2.78 | 2.66 | 3.67 | –
8 | 365_B11 (antibody, V domains shown, VH/VL only) VH: EVQLLESGGGLVQPGGSLRLSCAASGFTFSSYGMHWVRQAPGKGLEWVAGINYNGGYTSYADSVKGRFTISRDNSKNTLYLQMNSLRAEDTAVYYCARSANWHDTALDYWGQGTLVTVSS VL: DIQMTQSPSSLSASVGDRVTITCRASQSIISYLNWYQQKPGKAPKLVIYATTSRHSGVPSRFSGSGSGTDFTLTISSLQPEDFATYYCQQSYDSPLTFGGGTKVEIK | 2.75 | 2.84 | 3.58 | –
9 | 365_D10 (antibody, V domains shown, VH/VL only) VH: EVQLLESGGGLVQPGGSLRLSCAASGFTFSSYSMNWVRQAPGKGLEWVAGINYNGGYTGYADSVKGRFTISRDNSKNTLYLQMNSLRAEDTAVYYCARGATWHDTHLDYWGQGTLVTVSS VL: DIQMTQSPSSLSASVGDRVTITCRASQSISTYLNWYQQKPGKAPKLLIYAATSRASGVPSRFSGSGSGTDFTLTISSLQPEDFATYYCQQSYESPLTFGGGTKVEIK | 2.24 | 2.39 | 3.27 | –
10 | 365_C02 (antibody, V domains shown, VH/VL only) VH: EVQLLESGGGLVQPGGSLRLSCAASGFTFDSYSMNWVRQAPGKGLEWVSNINYNGGYKGYADSVKGRFTISRDNSKNTLYLQMNSLRAEDTAVYYCARGATWHDTHLDYWGQGTLVTVSS VL: DIQMTQSPSSLSASVGDRVTITCRASQSISTYLNWYQQKPGKAPKLVIYAATSRHSGVPSRFSGSGSGTDFTLTISSLQPEDFATYYCQQSYENPLTFGGGTKVEIK | 2.33 | 2.15 | 3.45 | –
11 | 365_A08 (antibody, V domains shown, VH/VL only) VH: EVQLLESGGGLVQPGGSLRLSCAASGFTFSSYSMNWVRQAPGKGLEWVASINYNGGYKSYADSVKGRFTISRDNSKNTLYLQMNSLRAEDTAVYYCARGATWHDTHLDYWGQGTLVTVSS VL: DIQMTQSPSSLSASVGDRVTITCRASQSIITYLNWYQQKPGKAPKLVIYAATSRASGVPSRFSGSGSGTDFTLTISSLQPEDFATYYCQQSDNTPLTFGGGTKVEIK | 1.59 | 1.58 | 3.2 | –
12 | 365_C10 (antibody, V domains shown, VH/VL only) VH: EVQLLESGGGLVQPGGSLRLSCAASGFTFSSYGMHWVRQAPGKGLEWVASINYNGGYTSYADSVKGRFTISRDNSKNTLYLQMNSLRAEDTAVYYCARSANWHDTALDYWGQGTLVTVSS VL: DIQMTQSPSSLSASVGDRVTITCRASQSILSYVNWYQQKPGKAPKLLIYAATSLASGVPSRFSGSGSGTDFTLTISSLQPEDFATYYCQQSYESPLTFGGGTKVEIK | 2.44 | 2.45 | 3.41 | –
13 | 365_A12 (antibody, V domains shown, VH/VL only) VH: EVQLLESGGGLVQPGGSLRLSCAASGFTFSSYGMHWVRQAPGKGLEWVAGINYNGGYTSYADSVKGRFTISRDNSKNTLYLQMNSLRAEDTAVYYCAKSANWHDTHLDYWGQGTLVTVSS VL: DIQMTQSPSSLSASVGDRVTITCRASQSILTYVNWYQQKPGKAPKLLIYAATSRHSGVPSRFSGSGSGTDFTLTISSLQPEDFATYYCQQSYENPLTFGGGTKVEIK | 2.87 | 2.67 | 3.67 | –
14 | 365_D09 (antibody, V domains shown, VH/VL only) VH: EVQLLESGGGLVQPGGSLRLSCAASGFTFSSYGMHWVRQAPGKGLEWVSGINYNSGYTSYADSVKGRFTISRDNSKNTLYLQMNSLRAEDTAVYYCARSANWHDTALDYWGQGTLVTVSS VL: DIQMTQSPSSLSASVGDRVTITCRASQSILSYLNWYQQKPGKAPKLLIYAATSRASGVPSRFSGSGSGTDFTLTISSLQPEDFATYYCQQSDESPLTFGGGTKVEIK | 1.35 | 1.52 | 3.38 | –
15 | 365_D11 (antibody, V domains shown, VH/VL only) VH: EVQLLESGGGLVQPGGSLRLSCAASGFTFDSYGMNWVRQAPGKGLEWVSNINYNSGYTSYADSVKGRFTISRDNSKNTLYLQMNSLRAEDTAVYYCARSANWHDTALDYWGQGTLVTVSS VL: DIQMTQSPSSLSASVGDRVTITCRASQSIVSYLNWYQQKPGKAPKLVIYAATSRASGVPSRFSGSGSGTDFTLTISSLQPEDFATYYCQQSYSSPLTFGGGTKVEIK | 2.22 | 2.34 | 3.38 | –
16 | 365_D12 (antibody, V domains shown, VH/VL only) VH: EVQLLESGGGLVQPGGSLRLSCAASGFTFDSYGMNWVRQAPGKGLEWVSNINYNGGYTGYADSVKGRFTISRDNSKNTLYLQMNSLRAEDTAVYYCARSANWHDTALDYWGQGTLVTVSS VL: DIQMTQSPSSLSASVGDRVTITCRASQSIVTYLNWYQQKPGKAPKLVIYAATSRASGVPSRFSGSGSGTDFTLTISSLQPEDFATYYCQQSYDTPLTFGGGTKVEIK | 2.61 | 2.57 | 3.53 | –
17 | 365_B07 (antibody, V domains shown, VH/VL only) VH: EVQLLESGGGLVQPGGSLRLSCAASGFTFSSYGMHWVRQAPGKGLEWVASINYNSGYTSYADSVKGRFTISRDNSKNTLYLQMNSLRAEDTAVYYCARSANWHDTALDYWGQGTLVTVSS VL: DIQMTQSPSSLSASVGDRVTITCRASQSILTYLNWYQQKPGKAPKLLIYAATSRASGVPSRFSGSGSGTDFTLTISSLQPEDFATYYCQQSYENPLTFGGGTKVEIK | 2.21 | 2.11 | 3.23 | –
18 | 365_A09 (antibody, V domains shown, VH/VL only) VH: EVQLLESGGGLVQPGGSLRLSCAASGFTFSSYGMHWVRQAPGKGLEWVASINYNGGYTSYADSVKGRFTISRDNSKNTLYLQMNSLRAEDTAVYYCARGATWHDTHLDYWGQGTLVTVSS VL: DIQMTQSPSSLSASVGDRVTITCRASQSILSYVNWYQQKPGKAPKLLIYAATSRASGVPSRFSGSGSGTDFTLTISSLQPEDFATYYCQQSYDLPLTFGGGTKVEIK | 2.48 | 2.45 | 3.3 | –
19 | 365_D02 (antibody, V domains shown, VH/VL only) VH: EVQLLESGGGLVQPGGSLRLSCAASGFTFSSYSMHWVRQAPGKGLEWVASINYNGGYTSYADSVKGRFTISRDNSKNTLYLQMNSLRAEDTAVYYCARGATWHDTHLDYWGQGTLVTVSS VL: DIQMTQSPSSLSASVGDRVTITCRASQSIVTYLNWYQQKPGKAPKLLIYAATSLASGVPSRFSGSGSGTDFTLTISSLQPEDFATYYCQQSYDNPLTFGGGTKVEIK | 2.7 | 2.54 | 3.52 | –
